{"source": "paper PMC5691159", "about": "(Nature Communications, 2017)", "molecules": {"B1": {"name": "recombinant PfRhopH3-C protein (aa 617–865) with C-terminal hexa-Histidine tag (domain or fragment)", "chain": "QLSCFYPKEFELIKSRMIHPNIVDRILKGIDNLMKSTRYDKMRTMYLDFESSDIFSREKVFTALYNFDSFIKTNEQLKKKNLEEISEIPVQLETSNDGIGYRKQDVLYETDKPQTMDEASYEETVDEDAHHVNEKQHSAHFLDAIAEKDILEEKTKDQDLEIELYKYMGPLKEQSKSTSAASTSDEISGSEGPSTESTSTGNQGEDKTTDNTYKEMEELEEAEGTSNLKKGLEFYKSSLKLDQLDKEKP"}}, "key": {"[1]": {"target": "PfRhopH3 on the P. falciparum merozoite surface (P. falciparum (endogenous in merozoites)) (UniProt Q8I395)", "sequence (Q8I395 25-897)": "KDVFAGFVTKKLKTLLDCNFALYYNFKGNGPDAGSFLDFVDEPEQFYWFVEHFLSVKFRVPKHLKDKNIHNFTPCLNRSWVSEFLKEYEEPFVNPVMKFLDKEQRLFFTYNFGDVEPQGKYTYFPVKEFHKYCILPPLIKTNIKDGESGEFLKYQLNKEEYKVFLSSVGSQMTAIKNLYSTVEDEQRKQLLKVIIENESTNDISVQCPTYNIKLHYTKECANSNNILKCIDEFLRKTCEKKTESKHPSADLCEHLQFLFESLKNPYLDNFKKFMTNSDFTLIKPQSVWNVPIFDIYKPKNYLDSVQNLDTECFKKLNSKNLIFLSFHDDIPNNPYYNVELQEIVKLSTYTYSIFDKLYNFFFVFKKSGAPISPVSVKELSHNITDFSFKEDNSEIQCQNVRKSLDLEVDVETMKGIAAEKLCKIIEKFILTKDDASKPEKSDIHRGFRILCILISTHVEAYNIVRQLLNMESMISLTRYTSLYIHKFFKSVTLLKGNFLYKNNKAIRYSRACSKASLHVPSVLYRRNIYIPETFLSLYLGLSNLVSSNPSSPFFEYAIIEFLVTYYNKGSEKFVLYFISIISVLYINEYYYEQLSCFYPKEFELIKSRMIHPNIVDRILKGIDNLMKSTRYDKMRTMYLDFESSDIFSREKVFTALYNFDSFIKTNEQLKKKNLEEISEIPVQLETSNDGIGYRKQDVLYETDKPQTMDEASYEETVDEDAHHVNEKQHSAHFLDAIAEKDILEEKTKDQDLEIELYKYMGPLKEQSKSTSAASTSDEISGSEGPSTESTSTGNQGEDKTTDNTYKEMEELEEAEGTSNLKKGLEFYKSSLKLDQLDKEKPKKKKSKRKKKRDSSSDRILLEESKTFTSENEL", "test": "immunostaining of cells or tissue; free merozoites incubated with 25 µM Cyclophilin B for 2 h at RT, with or without pre-incubation with rabbit anti-PfRhopH3 or anti-Rap2b antibody (1:25, 15 min); bound CypB stained and its fluorescence intensity measured by confocal microscopy (mean of ten merozoites)"}, "[2]": {"target": "recombinant Cyclophilin B (Sino Biological) (human)", "test": "SPR; Biacore T200, 25 °C; CypB (200 RU) amine-coupled on CM5 chip; analyte injected at 30 µl/min; running buffer 50 mM HEPES, 150 mM NaCl, 5 mM MgCl2, pH 7.4; 1:1 (Langmuir) model"}, "[3]": {"target": "PfRh5 (Plasmodium falciparum) (UniProt Q8IFM5)", "conditions": "cited from earlier work"}, "PfRh5 protein": {"target": "T1, PfRh5 protein (P. falciparum, UniProt Q8IFM5 25-526)", "T1 sequence": "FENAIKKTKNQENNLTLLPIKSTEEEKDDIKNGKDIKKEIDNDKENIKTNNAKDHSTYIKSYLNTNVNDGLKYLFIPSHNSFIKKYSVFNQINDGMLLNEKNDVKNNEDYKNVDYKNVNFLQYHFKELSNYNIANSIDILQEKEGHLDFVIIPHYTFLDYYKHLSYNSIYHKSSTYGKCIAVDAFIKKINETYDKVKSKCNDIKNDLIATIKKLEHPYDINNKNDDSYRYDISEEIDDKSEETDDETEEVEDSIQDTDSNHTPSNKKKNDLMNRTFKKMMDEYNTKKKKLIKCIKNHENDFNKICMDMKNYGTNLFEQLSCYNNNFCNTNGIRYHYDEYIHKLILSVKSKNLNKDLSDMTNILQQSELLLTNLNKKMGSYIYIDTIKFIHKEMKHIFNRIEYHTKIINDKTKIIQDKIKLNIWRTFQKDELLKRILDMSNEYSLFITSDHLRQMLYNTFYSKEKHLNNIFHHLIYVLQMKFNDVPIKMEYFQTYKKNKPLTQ", "test": "SPR; Biacore T200, 25 °C; […]; running buffer 50 mM HEPES, 150 mM NaCl, 5 mM MgCl2, pH 7.4; 1:1 model", "conditions": "both partners purified"}, "[4]": {"target": "recombinant Cyclophilin B (Sino Biological) (human)", "test": "SPR; Biacore T200, 25 °C; […]; running buffer 50 mM HEPES, 150 mM NaCl, 5 mM MgCl2, pH 7.4; 1:1 (Langmuir) model"}}, "data": [{"molecule": "recombinant Cyclophilin B (Sino Biological) (natural protein)", "values": [{"measurement": "reduction of binding to merozoites after treatment with anti-RhopH3-C antibody", "setting": "[1]", "result": "> 50", "unit": "%"}]}, {"molecule": "recombinant Basigin (BSG/CD147, Sino Biological) (from UniProt P35613 138-325) (receptor)", "values": [{"measurement": "Kd", "setting": "[2]", "result": 0.43, "unit": "µM"}]}, {"molecule": "Basigin (from UniProt P35613)", "values": [{"measurement": "Kd", "setting": "[3]", "result": 1.12, "unit": "µM"}]}, {"molecule": "B1", "values": [{"measurement": "Kd", "setting": "PfRh5 protein", "result": 0.018, "unit": "µM"}, {"measurement": "Kd", "setting": "[4]", "result": 0.16, "unit": "µM"}]}]}
